B1: 5-C12-FC1-MMAE (5-C12-FC1 coupled to mc-vc-MMAE) (Fc fusion)
chain: QVQLVESGGGLAQAGGSLRLSCAGSGRTFSTDAMGWFRQAPGKEREFVAAINWSGGSTYYADSVKGRFTISRDNAKNTVYLQMNSVKPEDTAVYYCVADSLLALLDGSRGGPGTDSDSWGQGTQVTVSSEPKSSDKTHTCPPCPAPEFEGGPSVFLFPPKPKDTLMISRTPEVTCVVVDVSHEDPEVKFNWYVDGVEVHNAKTKPREEQYNSTYRVVSVLTVLHQDWLNGKEYKCKVSNKALPASIEKTISKAKGQPREPQVYTLPPSRDELTKNQVSLTCLVKGFYPSDIAVEWESNGQPENNYKTTPPVLDSDGSFFLYSKLTVDKSRWQQGNVFSCSVMHEALHNHYTQKSLSLSPGK
modifications: mc-vc-MMAE coupled to cysteine thiols after TCEP reduction; DAR4 about 66.2% and DAR2 about 21.9% by HIC; positions not given
B2: 4-C08-FC1-MMAE (4-C08-FC1 coupled to mc-vc-MMAE) (Fc fusion)
chain: DVQLVESGGGLVQPGGSLRLSCAVSGFSLSSYDMNWYRQGPGKEREWVANIHSSGGYPDYADAVKGRFTISRDNAKNMVYLQMNSLKPEDTAVYYCNLPPSRRWYKDYWGQGTQVTVSSEPKSSDKTHTCPPCPAPEFEGGPSVFLFPPKPKDTLMISRTPEVTCVVVDVSHEDPEVKFNWYVDGVEVHNAKTKPREEQYNSTYRVVSVLTVLHQDWLNGKEYKCKVSNKALPASIEKTISKAKGQPREPQVYTLPPSRDELTKNQVSLTCLVKGFYPSDIAVEWESNGQPENNYKTTPPVLDSDGSFFLYSKLTVDKSRWQQGNVFSCSVMHEALHNHYTQKSLSLSPGK
modifications: mc-vc-MMAE coupled to cysteine thiols after TCEP reduction; DAR4 about 41.8% and DAR2 about 42.7% by HIC; positions not given
B3: 4-E04-FC1-MMAE (4-E04-FC1 coupled to mc-vc-MMAE) (Fc fusion)
chain: AVQLVESGGGLVQPGGSLSLSCAASEMISSTYIMGWYRRSPGKERELVAVISGDGVTHYGDFVKGRFAISRDNVKNAVYLKMNFLTPEDTAVYYCNAAGRRNHWGQGTQVTVSSEPKSSDKTHTCPPCPAPEFEGGPSVFLFPPKPKDTLMISRTPEVTCVVVDVSHEDPEVKFNWYVDGVEVHNAKTKPREEQYNSTYRVVSVLTVLHQDWLNGKEYKCKVSNKALPASIEKTISKAKGQPREPQVYTLPPSRDELTKNQVSLTCLVKGFYPSDIAVEWESNGQPENNYKTTPPVLDSDGSFFLYSKLTVDKSRWQQGNVFSCSVMHEALHNHYTQKSLSLSPGK
modifications: mc-vc-MMAE coupled to cysteine thiols after TCEP reduction; the coupling did not complete and the proportion of coupling products was very low; positions not given
B4: 4-C05-FC1-MMAE (4-C05-FC1 coupled to mc-vc-MMAE) (Fc fusion)
chain: QVQLVESGGGLVQPGGSLRLSCAASGFTLDTYAIGWIRQAPGKEREGVSCISSTDGSTYYAASVKGRFTINRDNAKNTVYLQMNSLKPEDTAVYYCAAGPGTDCPLRFDYWGQGIQVTVSSEPKSSDKTHTCPPCPAPEFEGGPSVFLFPPKPKDTLMISRTPEVTCVVVDVSHEDPEVKFNWYVDGVEVHNAKTKPREEQYNSTYRVVSVLTVLHQDWLNGKEYKCKVSNKALPASIEKTISKAKGQPREPQVYTLPPSRDELTKNQVSLTCLVKGFYPSDIAVEWESNGQPENNYKTTPPVLDSDGSFFLYSKLTVDKSRWQQGNVFSCSVMHEALHNHYTQKSLSLSPGK
modifications: mc-vc-MMAE coupled to cysteine thiols after TCEP reduction; target DAR 4; positions not given
B5: F1-A01-FC1-MMAE (F1-A01-FC1 coupled to mc-vc-MMAE) (Fc fusion)
chain: EVQLVESGGGLVQAGGSLRLSCAASGRAFSAYAMGWFRQAPGKEREFVAAISWSGGSTYYADSVRGRFTISRDNTKNTVYLQMNSLKPEDTAVYYCNADSLLSLLDGSRGGPGTDSGSWGQGTQVTVSSEPKSSDKTHTCPPCPAPEFEGGPSVFLFPPKPKDTLMISRTPEVTCVVVDVSHEDPEVKFNWYVDGVEVHNAKTKPREEQYNSTYRVVSVLTVLHQDWLNGKEYKCKVSNKALPASIEKTISKAKGQPREPQVYTLPPSRDELTKNQVSLTCLVKGFYPSDIAVEWESNGQPENNYKTTPPVLDSDGSFFLYSKLTVDKSRWQQGNVFSCSVMHEALHNHYTQKSLSLSPGK
modifications: mc-vc-MMAE coupled to cysteine thiols after TCEP reduction; target DAR 4 (about 91% DAR4 by HIC); positions not given

Target: TF on the surface of tumor cells (MDA-MB-231, HPAF-II, HCC1806, BxPC3, HCC44, PC9, H1975 and other … (UniProt P13726 33-295, limits assumed))
Experiment: cell-based or functional assay

In order of rising “Cell proliferation inhibition IC50, BxPC3 cells (MTS)” value:
1. B2  0.7 ng/mL
2. B5  1.2 ng/mL
3. B1  5 ng/mL
4. B4  8.6 ng/mL
5. B3  28.8 ng/mL

In order of falling “Cell proliferation inhibition IC50, HCC1806 cells (MTS)” value:
1. B3  32.6 ng/mL
2. B1  26 ng/mL
3. B4  14 ng/mL
4. B5  4 ng/mL
5. B2  0.5 ng/mL

In order of falling “Cell proliferation inhibition IC50, HPAF-II cells (MTS)” value:
1. B3  24.3 ng/mL
2. B1  12 ng/mL
3. B4  7.7 ng/mL
4. B2  1 ng/mL
5. B5  0.7 ng/mL

Source: EP4696714A1, “PREPARATION METHOD FOR NANOBODY TARGETING TISSUE FACTOR AND CONJUGATE AND USE THEREOF” (Fudan University, priority 2023, dated 2024)
